Like-named read-outs stand apart in the source and are kept apart here.

Two molecules from US20240287172A1 (SCIRHOM, published 2024) can be followed below.

The target in assay [1] is T1, miR2-FL-WT-T7 (mouse, UniProt Q80WQ6 1-827).
T1 construct: on MEF-DKO cells
T1 sequence: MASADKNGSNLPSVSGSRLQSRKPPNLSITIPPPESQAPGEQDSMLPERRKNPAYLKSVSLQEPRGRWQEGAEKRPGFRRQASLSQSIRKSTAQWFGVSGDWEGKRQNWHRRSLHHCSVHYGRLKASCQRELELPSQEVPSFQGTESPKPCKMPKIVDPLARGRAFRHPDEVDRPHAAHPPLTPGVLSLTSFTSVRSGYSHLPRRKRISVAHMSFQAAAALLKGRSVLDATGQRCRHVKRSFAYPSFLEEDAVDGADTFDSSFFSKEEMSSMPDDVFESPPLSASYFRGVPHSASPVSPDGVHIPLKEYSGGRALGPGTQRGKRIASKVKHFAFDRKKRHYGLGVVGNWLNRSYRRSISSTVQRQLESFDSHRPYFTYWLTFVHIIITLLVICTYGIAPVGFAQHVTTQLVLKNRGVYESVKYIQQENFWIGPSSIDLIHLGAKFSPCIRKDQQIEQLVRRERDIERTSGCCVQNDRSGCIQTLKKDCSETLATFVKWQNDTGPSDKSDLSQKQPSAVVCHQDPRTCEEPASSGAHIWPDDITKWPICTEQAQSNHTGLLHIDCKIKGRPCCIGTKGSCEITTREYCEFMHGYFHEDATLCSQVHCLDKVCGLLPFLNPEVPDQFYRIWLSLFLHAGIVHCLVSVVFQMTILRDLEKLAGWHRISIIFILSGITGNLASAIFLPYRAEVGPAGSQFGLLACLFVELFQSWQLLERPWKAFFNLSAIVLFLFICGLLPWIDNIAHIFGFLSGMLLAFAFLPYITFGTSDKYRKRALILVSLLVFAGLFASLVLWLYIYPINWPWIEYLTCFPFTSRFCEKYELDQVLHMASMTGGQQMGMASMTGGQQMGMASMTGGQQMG
As to the kind of experiment: FACS on MEF-DKO-miR2-FL-WT-T7 cells.

For assay [2], the target named is T1, miR2-FL-WT-T7. As to the kind of experiment: FACS on MEF-DKO-miR2-FL-WT-T7 cells. The source holds these as a separate data set.
For the next assay, the target named is T2, hiR2-FL-L539A-T7 (human, UniProt Q6PJF5 1-856).
T2 construct: on MEF-DKO cells
T2 sequence: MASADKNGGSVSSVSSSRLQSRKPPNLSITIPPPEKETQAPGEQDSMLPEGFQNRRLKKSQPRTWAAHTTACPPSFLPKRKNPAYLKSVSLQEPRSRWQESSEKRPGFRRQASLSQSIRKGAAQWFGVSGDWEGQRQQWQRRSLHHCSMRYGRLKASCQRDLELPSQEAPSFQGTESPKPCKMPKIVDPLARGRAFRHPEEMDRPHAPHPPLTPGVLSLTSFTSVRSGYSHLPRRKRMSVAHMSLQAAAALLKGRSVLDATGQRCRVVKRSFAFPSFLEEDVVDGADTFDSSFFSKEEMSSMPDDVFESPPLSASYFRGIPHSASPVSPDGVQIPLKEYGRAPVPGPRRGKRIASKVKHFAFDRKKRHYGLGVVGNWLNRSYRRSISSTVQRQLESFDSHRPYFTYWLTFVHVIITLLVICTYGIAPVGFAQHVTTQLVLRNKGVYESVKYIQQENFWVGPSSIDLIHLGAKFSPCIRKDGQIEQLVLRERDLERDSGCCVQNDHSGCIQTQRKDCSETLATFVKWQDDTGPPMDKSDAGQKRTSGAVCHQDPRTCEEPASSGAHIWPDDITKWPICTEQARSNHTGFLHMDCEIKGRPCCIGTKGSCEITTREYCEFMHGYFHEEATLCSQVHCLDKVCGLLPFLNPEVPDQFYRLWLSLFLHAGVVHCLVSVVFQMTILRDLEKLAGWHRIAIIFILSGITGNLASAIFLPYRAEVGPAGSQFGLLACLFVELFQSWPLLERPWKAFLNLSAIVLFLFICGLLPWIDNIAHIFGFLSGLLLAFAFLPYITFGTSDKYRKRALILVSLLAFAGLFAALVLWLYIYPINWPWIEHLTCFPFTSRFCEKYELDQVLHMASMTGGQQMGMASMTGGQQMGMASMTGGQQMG
As to the kind of experiment: FACS on MEF-DKO-hiR2-FL-L539A-T7 cells.

B1: antibody 50 (antibody, V domains shown)
VH: QVQLQQSGAELVRPGASVKVSCKASGYAFSNYLIEWVKQRPGQGLEWIGVINPGSGFTKYNEKFKGKATLTADKSSSTAYMQLSSLTSEDSAVYFCARGLYRAMDYWGQGTSVTVSS
VL: DIQMTQSPASQSASLGESVTITCLASQTIGTWLAWYQQKPGKSPQLLIYAAASLADGVPSRFSGGGSGTKFSFKISSLQAEDFVNYYCQQIYSTPYTFGGGTKLEIK
notes: mouse IgG, kappa light chain; also called clone #50; purified antibody 50
For B1, the binding result with miR2-FL-WT-T7 [1] was “no binding (tested: 3 µg/ml)”.

B2: antibody 3 (antibody, V domains shown)
VH: QVTLKESGPGILQPSQTLSLTCSFSGFSLTTFAMGIGWVRQPSGKGLEWLAHIWWDGEKYNNPVLKSRLTISKDTSKNQVFLRIANVDTPDTATYYCARISSIYYIIDNWGQGTSVTVSS
VL: DIVLTQSPATLSVTPGHSVSLSCRASQSISNNLHWYQKKSHESPRLLIKYVSQSISGIPSRFSGSGSGTDFTLSINSVETEDFGMYFCQQSYNWPLTFGAGTKLELK
notes: mouse IgG, kappa light chain; also called clone #3; purified antibody 3
B2: the binding result with miR2-FL-WT-T7 [2] and with hiR2-FL-L539A-T7 was “no binding (tested: 3 µg/ml)” each time.
